What all share (assay): SPR, antibody binding to anti-his Fab captured FcgR-his (% Rmax)
Holding throughout (conditions): 1 μM antibody
(In general: SPR reads the build-up and loss of mass on a sensor chip optically.)

The target of test [1] is CD16B-NA2 (FcgRIIIb-NA2) (Homo sapiens, UniProt O75015). On the procedure: (§1) The binding of antibodies to Fc gamma receptors (FcγRs or FcgRs) was studied using biosensor technologies including Biacore surface plasmon resonance (SPR) and Fortebio Biolayer Interferometry (BLI). SPR studies were performed on a Biacore T100 instrument (GE Healthcare) at 25° C. The Fab fragment from a murine anti-6×His antibody was immobilized on a CM5 sensor chip using EDC/NHS to a density of −3000 RU. Various his-tagged FcgRs (7 ug/ml) were captured via the C-terminal his-tag using a contact time of 30 s at 10 ul/min, and the binding of 1.0 μM antibody was evaluated in a running buffer of 10 mM NaPO4, 130 mM NaCl, 0.05% p20 (PBS-T) pH 7.1. FcgRs used for these experiments included CD64 (FcgRI), CD32a-H131 (FcgRIIa-H131), CD32a-R131 (FcgRIIa-R131), CD32b (FcgRIIb), CD16a-V158 (FcgRIIIa-V158), CD16b-NA1 (FcgRIIIb-NA1), and CD16B-NA2 (FcgRIIIb-NA2). BLI experiments were performed on a Fortebio Octet RED instrument (Pall, Fortebio) at 25° C. in 10 mM NaPO4, 130 mM NaCl, 0.05% p20 (PBS-T) pH 7.1. Antibodies were captured out of undiluted expression supernatants on protein A coated sensors, followed by the binding of 1 μM hCD32a-H131, hCD32a-R131, hCD32b, hCD16a-V158, or 0.1 μM hCD64 analytes.

Test [2] deals with CD16a-V158 (FcgRIIIa-V158) (Homo sapiens, UniProt P08637, F176V). Here is the method:
as §1

In test [3] the target is T1, CD32a-H131 (FcgRIIa-H131) (Homo sapiens, UniProt P12318).
T1 sequence (P12318 34-217 limits assumed): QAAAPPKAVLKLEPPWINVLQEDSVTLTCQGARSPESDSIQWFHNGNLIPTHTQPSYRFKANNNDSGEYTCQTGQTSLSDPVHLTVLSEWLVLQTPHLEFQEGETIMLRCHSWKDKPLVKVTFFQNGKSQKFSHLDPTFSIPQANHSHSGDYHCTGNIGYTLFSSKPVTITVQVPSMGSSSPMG
Here is the method: as §1

The target in test [4] is T2, CD32a-R131 (FcgRIIa-R131) (Homo sapiens, UniProt P12318, H167R).
T2 sequence (P12318 34-217 H167R limits assumed): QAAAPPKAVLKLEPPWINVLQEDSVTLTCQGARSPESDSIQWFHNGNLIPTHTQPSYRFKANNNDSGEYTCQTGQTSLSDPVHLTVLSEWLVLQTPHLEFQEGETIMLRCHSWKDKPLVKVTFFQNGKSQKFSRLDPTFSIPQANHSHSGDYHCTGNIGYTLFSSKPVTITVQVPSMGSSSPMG
On the procedure: as §1

The target of test [5] is T3, CD32b (FcgRIIb) (Homo sapiens, UniProt P31994).
T3 sequence (P31994 43-310): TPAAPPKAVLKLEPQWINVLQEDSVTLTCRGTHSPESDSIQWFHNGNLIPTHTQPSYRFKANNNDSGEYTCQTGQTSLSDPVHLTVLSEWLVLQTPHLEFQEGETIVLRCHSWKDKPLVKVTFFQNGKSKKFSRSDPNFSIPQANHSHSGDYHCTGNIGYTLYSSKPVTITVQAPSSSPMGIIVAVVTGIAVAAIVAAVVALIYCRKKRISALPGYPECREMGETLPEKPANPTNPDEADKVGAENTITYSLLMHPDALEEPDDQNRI
On the procedure: as §1

Test [6] has as its target CD64 (FcgRI) (Homo sapiens, UniProt P12314). On the procedure: as §1

Sequence of CD16B-NA2 (FcgRIIIb-NA2) (O75015 17-200 limits assumed): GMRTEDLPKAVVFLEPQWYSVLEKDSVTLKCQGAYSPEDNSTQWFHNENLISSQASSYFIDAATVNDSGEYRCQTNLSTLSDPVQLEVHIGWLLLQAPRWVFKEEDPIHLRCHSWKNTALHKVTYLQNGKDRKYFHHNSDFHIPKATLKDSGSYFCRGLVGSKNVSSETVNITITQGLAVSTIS
Sequence of CD16a-V158 (FcgRIIIa-V158) (P08637 17-208 F176V limits assumed): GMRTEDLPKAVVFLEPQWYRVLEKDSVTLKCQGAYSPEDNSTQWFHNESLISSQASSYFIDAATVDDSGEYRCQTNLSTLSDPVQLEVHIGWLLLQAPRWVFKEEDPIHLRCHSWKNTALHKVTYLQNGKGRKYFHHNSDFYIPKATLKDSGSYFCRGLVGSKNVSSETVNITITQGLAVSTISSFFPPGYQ
Sequence of CD64 (FcgRI) (P12314 16-374): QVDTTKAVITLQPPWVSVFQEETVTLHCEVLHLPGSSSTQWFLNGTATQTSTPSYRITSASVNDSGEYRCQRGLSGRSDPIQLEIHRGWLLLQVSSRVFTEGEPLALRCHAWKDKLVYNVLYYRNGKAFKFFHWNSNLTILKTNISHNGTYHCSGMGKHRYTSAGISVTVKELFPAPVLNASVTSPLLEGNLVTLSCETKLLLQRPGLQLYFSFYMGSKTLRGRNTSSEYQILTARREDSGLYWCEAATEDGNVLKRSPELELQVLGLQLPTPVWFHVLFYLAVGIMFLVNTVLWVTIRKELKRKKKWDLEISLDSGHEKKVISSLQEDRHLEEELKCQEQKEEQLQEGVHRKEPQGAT

B1: mAb7-IgG2.3G1-AY-V27 (protein)
constant: ASTKGPSVFPLAPCSRSTSESTAALGCLVKDYFPEPVTVSWNSGALTSGVHTFPAVLQSSGLYSLSSVVTVPSSNFGTQTYTCNVDHKPSNTKVDKTVERKSCVECPPCPAPELLGGPSVFLFPPKPKDTLMISRTPEVTCVVVDVEHEDPEVKFNWYVDGVEVHNAKTKPREEQYNSTYRVVSVLTVLHQDWLNGKEYKCKVSNKALPAPIEKTISKAKGQPREPQVYTLPPSREEMTKNQVSLTCLVKGFYPSDIAVEWESNGQPENNYKTTPPVLDSDGSFFLYSKLTVDKSRWQQGNVFSCSVMHEALHNHYTQKSLSLSPGK
modifications: left off: another chain or arm of the molecule
For the molecule B1, the “% Rmax hCD16B-NA2” value in test [1] came out at 7%. Besides, the “% Rmax hCD16a-V158” value in test [2] is reported as 26%. In addition, in test [3], the “% Rmax hCD32a-H131” value is 68%. For the same molecule, in test [4], the “% Rmax hCD32a-R131” value is listed as 92%. Also, the “% Rmax hCD32b” value in test [5] came out at 76%. For the same molecule, in test [6], the “% Rmax hCD64” value is 84%.

B2: mAb8-IgG2.5G1-AY-V27 (protein)
constant: ASTKGPSVFPLAPSSRSTSESTAALGCLVKDYFPEPVTVSWNSGALTSGVHTFPAVLQSSGLYSLSSVVTVPSSNFGTQTYTCNVDHKPSNTKVDKTVERKCCVECPPCPAPELLGGPSVFLFPPKPKDTLMISRTPEVTCVVVDVEHEDPEVKFNWYVDGVEVHNAKTKPREEQYNSTYRVVSVLTVLHQDWLNGKEYKCKVSNKALPAPIEKTISKAKGQPREPQVYTLPPSREEMTKNQVSLTCLVKGFYPSDIAVEWESNGQPENNYKTTPPVLDSDGSFFLYSKLTVDKSRWQQGNVFSCSVMHEALHNHYTQKSLSLSPGK
modifications: left off: another chain or arm of the molecule
B2: in test [1], the “% Rmax hCD16B-NA2” value was determined as 10%. In test [2], the “% Rmax hCD16a-V158” value worked out at 33%. In addition, the “% Rmax hCD32a-H131” value in test [3] stood at 76%. Further, in test [4], the “% Rmax hCD32a-R131” value is listed as 79%. In addition, the “% Rmax hCD32b” value in test [5] was found to be 77%. Further, the “% Rmax hCD64” value in test [6] came to 77%.

B3: mAb7-IgG2.5G1-AY-V27 (protein)
constant: ASTKGPSVFPLAPSSRSTSESTAALGCLVKDYFPEPVTVSWNSGALTSGVHTFPAVLQSSGLYSLSSVVTVPSSNFGTQTYTCNVDHKPSNTKVDKTVERKCCVECPPCPAPELLGGPSVFLFPPKPKDTLMISRTPEVTCVVVDVEHEDPEVKFNWYVDGVEVHNAKTKPREEQYNSTYRVVSVLTVLHQDWLNGKEYKCKVSNKALPAPIEKTISKAKGQPREPQVYTLPPSREEMTKNQVSLTCLVKGFYPSDIAVEWESNGQPENNYKTTPPVLDSDGSFFLYSKLTVDKSRWQQGNVFSCSVMHEALHNHYTQKSLSLSPGK
modifications: left off: another chain or arm of the molecule
Turning to B3, the “% Rmax hCD16B-NA2” value in test [1] was 9%. Besides, the “% Rmax hCD16a-V158” value in test [2] is on record as 32%. For the same molecule, the “% Rmax hCD32a-H131” value in test [3] came to 74%. Further, the “% Rmax hCD32a-R131” value in test [4] is on record as 89%. Also, the “% Rmax hCD32b” value in test [5] amounted to 84%. The “% Rmax hCD64” value in test [6] is on record as 81%.

B4: mAb6-IgG2.5 (protein)
constant: ASTKGPSVFPLAPSSRSTSESTAALGCLVKDYFPEPVTVSWNSGALTSGVHTFPAVLQSSGLYSLSSVVTVPSSNFGTQTYTCNVDHKPSNTKVDKTVERKCCVECPPCPAPPVAGPSVFLFPPKPKDTLMISRTPEVTCVVVDVSHEDPEVQFNWYVDGVEVHNAKTKPREEQFNSTFRVVSVLTVVHQDWLNGKEYKCKVSNKGLPAPIEKTISKTKGQPREPQVYTLPPSREEMTKNQVSLTCLVKGFYPSDIAVEWESNGQPENNYKTTPPMLDSDGSFFLYSKLTVDKSRWQQGNVFSCSVMHEALHNHYTQKSLSLSPGK
modifications: left off: another chain or arm of the molecule
As to B4, the “% Rmax hCD16B-NA2” value in test [1] is 0%. The “% Rmax hCD16a-V158” value in test [2] was 2%. For the same molecule, in test [3], the “% Rmax hCD32a-H131” value turned out to be 75%. Also, the “% Rmax hCD32a-R131” value in test [4] is reported as 17%. Besides, the “% Rmax hCD32b” value in test [5] is 4%. Also, in test [6], the “% Rmax hCD64” value is given as 3%.

B5: mAb5-IgG2.5 (protein)
constant: ASTKGPSVFPLAPSSRSTSESTAALGCLVKDYFPEPVTVSWNSGALTSGVHTFPAVLQSSGLYSLSSVVTVPSSNFGTQTYTCNVDHKPSNTKVDKTVERKCCVECPPCPAPPVAGPSVFLFPPKPKDTLMISRTPEVTCVVVDVSHEDPEVQFNWYVDGVEVHNAKTKPREEQFNSTFRVVSVLTVVHQDWLNGKEYKCKVSNKGLPAPIEKTISKTKGQPREPQVYTLPPSREEMTKNQVSLTCLVKGFYPSDIAVEWESNGQPENNYKTTPPMLDSDGSFFLYSKLTVDKSRWQQGNVFSCSVMHEALHNHYTQKSLSLSPGK
modifications: left off: another chain or arm of the molecule
For the molecule B5, the “% Rmax hCD16B-NA2” value in test [1] turned out to be 1%. In addition, in test [2], the “% Rmax hCD16a-V158” value came out at 4%. Besides, the “% Rmax hCD32a-H131” value in test [3] turned out to be 89%. For the same molecule, the “% Rmax hCD32a-R131” value in test [4] is given as 26%. For the same molecule, the “% Rmax hCD32b” value in test [5] is on record as 5%. For the same molecule, in test [6], the “% Rmax hCD64” value is 6%.

B6: mAb4-IgG2.5 (protein)
constant: ASTKGPSVFPLAPSSRSTSESTAALGCLVKDYFPEPVTVSWNSGALTSGVHTFPAVLQSSGLYSLSSVVTVPSSNFGTQTYTCNVDHKPSNTKVDKTVERKCCVECPPCPAPPVAGPSVFLFPPKPKDTLMISRTPEVTCVVVDVSHEDPEVQFNWYVDGVEVHNAKTKPREEQFNSTFRVVSVLTVVHQDWLNGKEYKCKVSNKGLPAPIEKTISKTKGQPREPQVYTLPPSREEMTKNQVSLTCLVKGFYPSDIAVEWESNGQPENNYKTTPPMLDSDGSFFLYSKLTVDKSRWQQGNVFSCSVMHEALHNHYTQKSLSLSPGK
modifications: left off: another chain or arm of the molecule
As to B6, the “% Rmax hCD16B-NA2” value in test [1] amounted to 0%. Also, in test [2], the “% Rmax hCD16a-V158” value was determined as 1%. The “% Rmax hCD32a-H131” value in test [3] is recorded as 46%. Further, the “% Rmax hCD32a-R131” value in test [4] is given as 8%. Moreover, the “% Rmax hCD32b” value in test [5] is recorded as 1%. The “% Rmax hCD64” value in test [6] was determined as 2%.

B7: mAb13-IgG2.5 (protein)
constant: ASTKGPSVFPLAPSSRSTSESTAALGCLVKDYFPEPVTVSWNSGALTSGVHTFPAVLQSSGLYSLSSVVTVPSSNFGTQTYTCNVDHKPSNTKVDKTVERKCCVECPPCPAPPVAGPSVFLFPPKPKDTLMISRTPEVTCVVVDVSHEDPEVQFNWYVDGVEVHNAKTKPREEQFNSTFRVVSVLTVVHQDWLNGKEYKCKVSNKGLPAPIEKTISKTKGQPREPQVYTLPPSREEMTKNQVSLTCLVKGFYPSDIAVEWESNGQPENNYKTTPPMLDSDGSFFLYSKLTVDKSRWQQGNVFSCSVMHEALHNHYTQKSLSLSPGK
modifications: left off: another chain or arm of the molecule
Turning to B7, in test [1], the “% Rmax hCD16B-NA2” value is listed as −2%. Further, the “% Rmax hCD16a-V158” value in test [2] is 0%. The “% Rmax hCD32a-H131” value in test [3] is on record as 39%. For the same molecule, the “% Rmax hCD32a-R131” value in test [4] is 4%. Moreover, the “% Rmax hCD32b” value in test [5] was −2%. Further, the “% Rmax hCD64” value in test [6] is listed as −2%.

For the origin of these results see patent US20190284293A1, “COMBINATION THERAPY WITH ANTI-CD73 ANTIBODIES” (BRISTOL-MYERS SQUIBB COMPANY, priority 2016, published 2019).
